Laboratory results published in patent publication US20090099029A1, “Methods and substrates for conducting assays” (Invitrogen Corporation, priority 2005, published 2009).

B1: CSNK1D(CK1delta) (protein)
chain: MELRVGNRYRLGRKIGSGSFGDIYLGTDIAAGEEVAIKLECVKTKHPQLHIESKIYKMMQGGVGIPTIRWCGAEGDYNVMVMELLGPSLEDLFNFCSRKFSLKTVLLLADQMISRIEYIHSKNFIHRDVKPDNFLMGLGKKGNLVYIIDFGLAKKYRDARTHQHIPYRENKNLTGTARYASINTHLGIEQSRRDDLESLGYVLMYFNLGSLPWQGLKAATKRQKYERISEKKMSTPIEVLCKGYPSEFATYLNFCRSLRFDDKPDYSYLRQLFRNLFHRQGFSYDYVFDWNMLKFGASRAADDAERERRDREERLRHSRNPATRGLPSTASGRLRGTQEVAPPTPLTPTSHTANTSPRPVSGMERERKVSMRLHRGAPVNISSSDLTGRQDTSRMSTSQNSIPFEHHGK
modifications: left off: a dimerising Fc or GST
B2: CHEK1 (protein)
chain: MAVPFVEDWDLVQTLGEGAYGEVQLAVNRVTEEAVAVKIVDMKRAVDCPENIKKEICINKMLNHENVVKFYGHRREGNIQYLFLEYCSGGELFDRIEPDIGMPEPDAQRFFHQLMAGVVYLHGIGITHRDIKPENLLLDERDNLKISDFGLATVFRYNNRERLLNKMCGTLPYVAPELLKRREFHAEPVDVWSCGIVLTAMLAGELPWDQPSDSCQEYSDWKEKKTYLNPWKKIDSAPLALLHKILVENPSARITIPDIKKDRWYNKPLKKGAKRPRVTSGGVSESPSGFSKHIQSNLDFSPVNSASSEENVKYSSSQPEPRTGLSLWDTSPSYIDKLVQGISFSQPTCPDHMLLNSQLLGTPGSSQNPWQRLVKRMTRFFTKLDADKSYQCLKETCEKLGYQWKKSCMNQVTISTTDRRNNKLIFKVNLLEMDDKILVDFRLSKGDGLEFKRHFLKIKGKLIDIVSSQKIWLPAT
modifications: left off: small tags and cut ends
B3: DMPK (protein)
chain: MSAEVRLRRLQQLVLDPGFLGLEPLLDLLLGVHQELGASELAQDKYVADFLQWAEPIVVRLKEVRLQRDDFEILKVIGRGAFSEVAVVKMKQTGQVYAMKIMNKWDMLKRGEVSCFREERDVLVNGDRRWITQLHFAFQDENYLYLVMEYYVGGDLLTLLSKFGERIPAEMARFYLAEIVMAIDSVHRLGYVHRDIKPDNILLDRCGHIRLADFGSCLKLRADGTVRSLVAVGTPDYLSPEILQAVGGGPGTGSYGPECDWWALGVFAYEMFYGQTPFYADSTAETYGKIVHYKEHLSLPLVDEGVPEEARDFIQRLLCPPETRLGRGGAGDFRTHPFFFGLDWDGLRDSVPPFTPDFEGATDTCNFDLVEDGLTAMVSGGGETLSDIREGAPLGVHLPFVGYSYSCMALRDSEVPGPTPMELEAEQLLEPHVQAPSLEPSVSPQDETAEVAVPAAVPAAEAEAEVTLRELQEALEEEVLTRQSLSREMEAIRTDNQNFASQLREAEARNRDLEAHVRQLQERMELLQAEGATAVTGVPSPRATDPPSHLDGPPAVAVGQCPLVGPGPMHRRHLLLPARVPRPGLSEALSLLLFAVVLSRAAALGCIGLVAHAGQLTAVWRRPGAARAP
modifications: left off: a dimerising Fc or GST
B4: DYRK3 (protein)
chain: MGGTARGPGRKDAGPPGAGLPPQQRRLGDGVYDTFMMIDETKCPPCSNVLCNPSEPPPPRRLNMTTEQFTGDHTQHFLDGGEMKVEQLFQEFGNRKSNTIQSDGISDSEKCSPTVSQGKSSDCLNTVKSNSSSKAPKVVPLTPEQALKQYKHHLTAYEKLEIINYPEIYFVGPNAKKRHGVIGGPNNGGYDDADGAYIHVPRDHLAYRYEVLKIIGKGSFGQVARVYDHKLRQYVALKMVRNEKRFHRQAAEEIRILEHLKKQDKTGSMNVIHMLESFTFRNHVCMAFELLSIDLYELIKKNKFQGFSVQLVRKFAQSILQSLDALHKNKIIHCDLKPENILLKHHGRSSTKVIDFGSSCFEYQKLYTYIQSRFYRAPEIILGSRYSTPIDIWSFGCILAELLTGQPLFPGEDEGDQLACMMELLGMPPPKLLEQSKRAKYFINSKGIPRYCSVTTQADGRVVLVGGRSRRGKKRGPPGSKDWGTALKGCDDYLFIEFLKRCLHWDPSARLTPAQALRHPWISKSVPRPLTTIDKVSGKRVVNPASAFQGLGSKLPPVVGIANKLKANLMSETNGSIPLCSVLPKLIS
modifications: left off: a dimerising Fc or GST
B5: DAPK2 (protein)
chain: MFQASMRSPNMEPFKQQKVEDFYDIGEELGSGQFAIVKKCREKSTGLEYAAKFIKKRQSRASRRGVSREEIEREVSILRQVLHHNVITLHDVYENRTDVVLILELVSGGELFDFLAQKESLSEEEATSFIKQILDGVNYLHTKKIAHFDLKPENIMLLDKNIPIPHIKLIDFGLAHEIEDGVEFKNIFGTPEFVAPEIVNYEPLGLEADMWSIGVITYILLSGASPFLGDTKQETLANITAVSYDFDEEFFSQTSELAKDFIRKLLVKETRKRLTIQEALRHPWITPVDNQQAMVRRESVVNLENFRKQYVRRRWKLSFSIVSLCNHLTRSLMKKVHLRPDEDLRNCESDTEEDIARRKALHPRRRSSTS
modifications: left off: a dimerising Fc or GST
B6: DAPK3(ZIPK) (protein)
chain: MSTFRQEDVEDHYEMGEELGSGQFAIVRKCRQKGTGKEYAAKFIKKRRLSSSRRGVSREEIEREVNILREIRHPNIITLHDIFENKTDVVLILELVSGGELFDFLAEKESLTEDEATQFLKQILDGVHYLHSKRIAHFDLKPENIMLLDKNVPNPRIKLIDFGIAHKIEAGNEFKNIFGTPEFVAPEIVNYEPLGLEADMWSIGVITYILLSGASPFLGETKQETLTNISAVNYDFDEEYFSNTSELAKDFIRRLLVKDPKRRMTIAQSLEHSWIKAIRRRNVRGEDSGRKPERRRLKTTRLKEYTIKSHSSLPPNNSYADFERFSKVLEEAAAAEEGLRELQRSRRLCHEDVEALAAIYEEKEAWYREESDSLGQDLRRLRQELLKTEALKRQAQEEAKGALLGTSGLKRRFSRLENRYEALAKQVASEMRFVQDLVRALEQEKLQGVECGLR
modifications: left off: a dimerising Fc or GST
B7: EPHA1 (protein)
chain: RSRRAQRQRQQRQRDRATDVDREDKLWLKPYVDLQAYEDPAQGALDFTRELDPAWLMVDTVIGEGEFGEVYRGTLRLPSQDCKTVAIKTLKDTSPGGQWWNFLREATIMGQFSHPHILHLEGVVTKRKPIMIITEFMENGALDAFLREREDQLVPGQLVAMLQGIASGMNYLSNHNYVHRDLAARNILVNQNLCCKVSDFGLTRLLDDFDGTYETQGGKIPIRWTAPEAIAHRIFTTASDVWSFGIVMWEVLSFGDKPYGEMSNQEVMKSIEDGYRLPPPVDCPAPLYELMKNCWAYDRARRPHFQKLQAHLEQLLANPHSLRTIANFDPRMTLRLPSLSGSDGIPYRTVSEWLESIRMKRYILHFHSAGLDTMECVLELTAEDLTQMGITLPGHQKRILCSIQGFKD
modifications: left off: a dimerising Fc or GST
B8: EPHA2 (protein)
chain: HRRRKNQRARQSPEDVYFSKSEQLKPLKTYVDPHTYEDPNQAVLKFTTEIHPSCVTRQKVIGAGEFGEVYKGMLKTSSGKKEVPVAIKTLKAGYTEKQRVDFLGEAGIMGQFSHHNIIRLEGVISKYKPMMIITEYMENGALDKFLREKDGEFSVLQLVGMLRGIAAGMKYLANMNYVHRDLAARNILVNSNLVCKVSDFGLSRVLEDDPEATYTTSGGKIPIRWTAPEAISYRKFTSASDVWSFGIVMWEVMTYGERPYWELSNHEVMKAINDGFRLPTPMDCPSAIYQLMMQCWQQERARRPKFADIVSILDKLIRAPDSLKTLADFDPRVSIRLPSTSGSEGVPFRTVSEWLESIKMQQYTEHFMAAGYTAIEKVVQMTNDDIKRIGVRLPGHQKRIAYSLLGLKDQVNTVGIPI
modifications: left off: a dimerising Fc or GST
B9: CSNK2A2 (protein)
chain: MPGPAAGSRARVYAEVNSLRSREYWDYEAHVPSWGNQDDYQLVRKLGRGKYSEVFEAINITNNERVVVKILKPVKKKKIKREVKILENLRGGTNIIKLIDTVKDPVSKTPALVFEYINNTDFKQLYQILTDFDIRFYMYELLKALDYCHSKGIMHRDVKPHNVMIDHQQKKLRLIDWGLAEFYHPAQEYNVRVASRYFKGPELLVDYQMYDYSLDMWSLGCMLASMIFRREPFFHGQDNYDQLVRIAKVLGTEELYGYLKKYHIDLDPHFNDILGQHSRKRWENFIHSENRHLVSPEALDLLDKLLRYDHQQRLTAKEAMEHPYFYPVVKEQSQPCADNAVLSSGLTAAR
modifications: left off: a dimerising Fc or GST
B10: GRK4 (protein)
chain: MELENIVANSLLLKARQGGYGKKSGRSKKWKEILTLPPVSQCSELRHSIEKDYSSLCDKQPIGRRLFRQFCDTKPTLKRHIEFLDAVAEYEVADDEDRSDCGLSILDRFFNDKLAAPLPEIPPDVVTECRLGLKEENPSKKAFEECTRVAHNYLRGEPFEEYQESSYFSQFLQWKWLERQPVTKNTFRHYRVLGKGGFGEVCACQVRATGKMYACKKLQKKRIKKRKGEAMALNEKRILEKVQSRFVVSLAYAYETKDALCLVLTIMNGGDLKFHIYNLGNPGFDEQRAVFYAAELCCGLEDLQRERIVYRDLKPENILLDDRGHIRISDLGLATEIPEGQRVRGRVGTVGYMAPEVVNNEKYTFSPDWWGLGCLIYEMIQGHSPFKKYKEKVKWEEVDQRIKNDTEEYSEKFSEDAKSICRMLLTKNPSKRLGCRGEGAAGVKQHPVFKDINFRRLEANMLEPPFCPDPHAVYCKDVLDIEQFSVVKGIYLDTADEDFYARFATGCVSIPWQNEMIESGCFKDINKSESEEALPLDLDKNIHTPVSRPNRGFFYRLFRRGGCLTMVPSEKEVEPKQC
modifications: left off: a dimerising Fc or GST

Test system: kinases of Table 6 on Myelin Basic Protein (MBP)
Experiment: Kinase assay using MBP substrate, ProQ Diamond stain (Table 6)
Assay type: biochemical
Conditions: kinase printed on MBP-coated slide; 20 uM ATP, 30° C.; ProQ Diamond Microarray Stain; graded Strong/Weak/Negative
Description: In this illustrative example, four-well slides were designed with a hydrophobic mask surrounding 4-wells of aldehyde- or epoxy-coated glass (smooth or ES grade; Erie Scientific (Portsmouth, N.H.)). […] Bovine, dephosphorylated, Myelin Basic Protein (MBP) was purchased from Upstate Biotechnology (#13-110). MBP was diluted to 1 mg/ml in PBS, applied to the slide surface, covered with a coverslip, and left overnight at 4° C. to coat the slide with the MBP. Slides were washed 3 times with water and spun dry before printing.
Kinases were purchased from Panvera (Invitrogen, Carlsbad, Calif.), diluted in printing buffer (50 mM Tris pH 7.5, 25% glyercol, 0.05% TritonX-100, 2 mM DTT) and deposited using a GeneMachine OmniGrid100. Slides were stored at −20° C.
Reactions were performed following removal of the slide from the freezer. Reaction buffer (20 mM HEPES pH 7.5, 4 mM MgCl2, 2 mM DTT, 20 uM ATP, 5% DMSO) was added with or without inhibitor, a coverslip applied, and the slide placed at 30° C. for the appropriate reaction time. The slide was washed with water to stop the reaction (3 times) and spun dry. ProQ Diamond Microarray Stain (Invitrogen #P33706) was applied, covered with a coverslip, and the slide was incubated in the dark at room temperature for 30 minutes. The slide was destained and washed three times with water, and spun dry.

| Molecule | MBP Kinase Activity |
| --- | --- |
| B1 | Negative |
| B2 | Strong |
| B3 | Negative |
| B4 | Negative |
| B5 | Negative |
| B6 | Negative |
| B7 | Strong |
| B8 | Weak |
| B9 | Negative |
| B10 | Negative |
